Laboratory results reported in US20120301930A1 (YEDA RESEARCH AND DEVELOPMENT, published 2012).

How the values were obtained:
[1] = target: T1, f-5A chimera (catalytic module of T. fusca family-5 endoglucanase Cel5A fused to a dockerin from Ruminococcus …); test: non-denaturing PAGE mobility shift, equimolar mixture
T1 construct: Recombinant chimera expressed in E. coli; all enzyme constructs were designed to contain a His-tag; also called variant Cel5A
T1 chain: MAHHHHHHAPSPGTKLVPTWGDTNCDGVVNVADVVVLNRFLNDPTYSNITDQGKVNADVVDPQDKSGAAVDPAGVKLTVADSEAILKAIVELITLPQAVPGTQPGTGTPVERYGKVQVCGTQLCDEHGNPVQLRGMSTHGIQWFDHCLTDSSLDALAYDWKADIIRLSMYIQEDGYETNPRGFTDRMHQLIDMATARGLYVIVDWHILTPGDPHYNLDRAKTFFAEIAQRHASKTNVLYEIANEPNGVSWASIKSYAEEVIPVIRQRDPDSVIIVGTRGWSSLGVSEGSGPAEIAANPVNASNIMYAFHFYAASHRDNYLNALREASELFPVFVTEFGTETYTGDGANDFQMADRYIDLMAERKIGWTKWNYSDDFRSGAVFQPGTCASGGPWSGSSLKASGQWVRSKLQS

[2] = target: T2, 11A-a chimera (catalytic module of T. fusca Xyn11A attached directly to dockerin B from Acetivibrio …); test: affinity-based ELISA; complex formation also by non-denaturing PAGE
T2 construct: Recombinant chimera expressed in E. coli, purified on a Ni column (His-tag)

[3] = target: T3, 11A-XBM-a chimera (catalytic module of T. fusca Xyn11A together with its adjacent XBM attached to dockerin B …); test: as above
T3 construct: Recombinant chimera expressed in E. coli, purified on a Ni column (His-tag); also called variant Xyn11A

binding result [1]: binds | binding result [2]: binds | binding result [3]: binds
B1: Scaf-AF chimeric scaffoldin (cohesin 3 from A. cellulolyticus scaffoldin C, CBM3a from C. thermocellum, cohesin 1 from R. flavefaciens scaffoldin B) (other)
chain: MDLQVDIGSTSGKAGSVVSVPITFTNVPKSGIYALSFRTNFDPQKVTVASIDAGSLIENASDFTTYYNNENGFASMTFEAPVDRARIIDSDGVFATINFKVSDSAKVGELYNITTNSAYTSFYYSGTDEIKNVVYNDGKIEVIASVPTNTPTNTPANTPVSGNLKVEFYNSNPSDTTNSINPQFKVTNTGSSAIDLSKLTLRYYYTVDGQKDQTFWCDHAAIIGSNGSYNGITSNVKGTFVKMSSSTNNADTYLEISFTGGTLEPGAHVQIQGRFAKNDWSNYTQSNDYSFKSASQFVEWDQVTAYLNGVLVWGKEPGGSVVPSTQPVTTPPATTKPPATTIPPSEDPAGGLSAVQPNVSLGEVLDVSANRTAADGTVEWLIPTVTAAPGQTVTMPVVVKSSSLAVAGAQFKIQAATGVSYSSKTDGDAYGSGIVYNNSKYAFGQGAGRGIVAADDSVVLTLAYTVPADCAEGTYDVKWSDAFVSDTDGQNITSKVTLTDGAIIVHHHHHH
